Source: patent US20170266311A1 (published 2017)

Tests used:
[1] = target: T1, human NaPi2b (sodium-dependent phosphate transport protein 2B, SLC34A2) (human, UniProt O95436 1-690); assay: flow cytometry on TOV-21G cells, Alexa Fluor 647 goat anti-human IgG detection, one site specific binding fit
T1 construct: also called NaPiIIb; Npt2
T1 sequence: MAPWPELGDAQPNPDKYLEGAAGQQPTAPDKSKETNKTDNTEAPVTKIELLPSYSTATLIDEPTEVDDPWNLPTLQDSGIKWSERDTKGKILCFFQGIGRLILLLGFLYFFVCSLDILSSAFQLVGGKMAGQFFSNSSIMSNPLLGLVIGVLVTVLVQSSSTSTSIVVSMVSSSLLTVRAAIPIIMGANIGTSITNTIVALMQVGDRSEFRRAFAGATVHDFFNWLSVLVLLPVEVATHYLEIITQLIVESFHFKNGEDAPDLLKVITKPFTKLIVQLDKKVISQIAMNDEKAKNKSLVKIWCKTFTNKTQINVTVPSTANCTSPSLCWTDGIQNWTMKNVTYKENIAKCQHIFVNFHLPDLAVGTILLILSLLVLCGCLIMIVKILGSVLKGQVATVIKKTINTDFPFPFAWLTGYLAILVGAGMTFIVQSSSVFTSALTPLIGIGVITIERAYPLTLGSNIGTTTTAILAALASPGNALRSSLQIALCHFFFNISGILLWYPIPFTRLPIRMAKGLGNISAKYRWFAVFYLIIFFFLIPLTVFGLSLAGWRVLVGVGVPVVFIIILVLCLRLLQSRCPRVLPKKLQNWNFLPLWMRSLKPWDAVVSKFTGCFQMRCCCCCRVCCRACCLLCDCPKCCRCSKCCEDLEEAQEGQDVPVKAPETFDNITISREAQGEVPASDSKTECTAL
Description: (§1) TOV-21G or OVCAR3 cells were grown overnight to approximately 90% confluent cultures in media, then were released from the plate surface by treatment with Trypsin-EDTA (Gibco-Thermo Fisher Scientific, USA). The detached cells were washed once with ice cold media containing 6% goat serum and resuspended in the same media. 50,000 cells were aliquoted per well of a V-bottom, 96-well plate and incubated with a range of test articles concentrations (0.23-500 nM) in 100 μl Media (1:1 mixture MCDB105 (1.5 g/L sodium bicarbonate) and Medium 199 (2.2 g/L sodium bicarbonate plus 15% FBS)) with 6% goat serum on ice for 3 hours. The cells were then washed once with ice cold PBS and resuspended in 150 μl Media with 2% goat serum and 6 μg/ml of a secondary fluorescently labeled antibody, Alexa Fluor® 647-labelled goat anti-human IgG (Life Technologies, Cat# A-21445) for 1 hour on ice. The cells were washed once with ice cold PBS and suspended in 150 μl of ice cold PBS with 1% paraformaldehyde. The amount of fluorescence bound per cell was determined by running 5000 cells for each treatment on a MACSQuant flow cytometer (Miltenyi Biotec, Bergisch Gladbach, Germany). The median fluorescence value for each treatment was graphed, and the binding constant, KD was calculated for each test article with GraphPad Prism software by non-linear regression using the one site specific binding model.

[2] = target: T1, human NaPi2b (sodium-dependent …); assay: flow cytometry on OVCAR3 cells, Alexa Fluor 647 goat anti-human IgG detection, one site specific binding fit
Description: as §1

B1: XMT 1535 antibody (antibody, human IgG1, kappa, V domains shown)
VH: QVQLVQSGAEVVKPGASVKMSCKASGYTFTGYNIHWVKQAPGQGLEWIGAIYPGNGDTSYKQKFRGRATLTADTSTSTVYMELSSLRSEDSAVYYCARGETARATFAYWGQGTLVTVSS
VL: DIQMTQSPSSLSASVGDRVTITCSASQDIGNFLNWYQQKPGKTVKVLIYYTSSLYSGVPSRFSGSGSGTDYTLTISSLQPEDFATYYCQQYSKLPLTFGQGTKLELKR
notes: Full IgG1
Work on B1 yielded a Kd [1] of 2.46 nM and a Kd [2] of 6.59 nM.

B2: Example 1C, XMT 1535-(EG2-MI-(10 kDa PHF-BA-(AF-HPA-Ala))) (antibody, human IgG1, kappa, V domains shown)
VH: B1 VH
VL: B1 VL
modifications: EG2-MI-(10 kDa PHF-BA-(AF-HPA-Ala)) polymer-drug scaffolds attached by maleimide to cysteines of the partially reduced antibody; positions and chain not stated; DAR about 11:1 to about 15:1
Binder B2 has a Kd [1] of 3.97 nM and a Kd [2] of 3.84 nM.
